From patent US20070243181

myc-IRAK1c, sequence (chain, as listed by the source): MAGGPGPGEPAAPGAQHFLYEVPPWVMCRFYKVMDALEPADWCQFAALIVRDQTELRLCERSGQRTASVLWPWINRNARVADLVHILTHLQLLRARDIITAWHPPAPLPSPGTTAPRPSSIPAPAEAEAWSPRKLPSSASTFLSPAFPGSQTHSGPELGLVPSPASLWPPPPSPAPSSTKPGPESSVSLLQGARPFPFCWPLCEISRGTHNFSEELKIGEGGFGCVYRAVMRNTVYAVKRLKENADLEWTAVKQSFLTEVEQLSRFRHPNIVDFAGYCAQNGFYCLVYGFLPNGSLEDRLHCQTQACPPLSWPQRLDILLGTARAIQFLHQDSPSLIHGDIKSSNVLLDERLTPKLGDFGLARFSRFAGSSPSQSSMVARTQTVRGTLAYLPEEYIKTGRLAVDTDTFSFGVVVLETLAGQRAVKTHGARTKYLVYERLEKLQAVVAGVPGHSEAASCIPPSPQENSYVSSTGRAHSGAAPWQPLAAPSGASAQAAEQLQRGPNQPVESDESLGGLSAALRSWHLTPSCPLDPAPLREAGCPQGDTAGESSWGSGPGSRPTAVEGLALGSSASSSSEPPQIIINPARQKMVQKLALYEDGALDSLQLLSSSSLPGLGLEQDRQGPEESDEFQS
myc-IRAK1c-KD, sequence (chain, as listed by the source): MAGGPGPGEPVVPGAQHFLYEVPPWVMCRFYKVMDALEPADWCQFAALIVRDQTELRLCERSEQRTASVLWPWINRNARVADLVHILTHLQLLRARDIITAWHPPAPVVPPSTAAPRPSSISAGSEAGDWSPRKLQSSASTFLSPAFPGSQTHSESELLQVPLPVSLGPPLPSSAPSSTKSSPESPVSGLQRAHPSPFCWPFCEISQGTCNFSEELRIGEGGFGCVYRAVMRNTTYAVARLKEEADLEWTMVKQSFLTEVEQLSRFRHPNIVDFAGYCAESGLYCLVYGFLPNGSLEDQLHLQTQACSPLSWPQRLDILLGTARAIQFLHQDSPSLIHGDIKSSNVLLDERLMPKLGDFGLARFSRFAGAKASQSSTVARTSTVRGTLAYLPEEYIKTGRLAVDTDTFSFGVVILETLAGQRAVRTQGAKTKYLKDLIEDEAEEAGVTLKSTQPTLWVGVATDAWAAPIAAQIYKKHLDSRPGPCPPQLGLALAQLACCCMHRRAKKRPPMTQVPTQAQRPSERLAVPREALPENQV

B1: recombinant IRAK4 (protein)
chain: MNKPITPSTYVRCLNVGLIRKLSDFIDPQEGWKKLAVAIKKPSGDDRYNQFHIRRFEALLQTGKSPTSELLFDWGTTNCTVGDLVDLLIQNEFFAPASLLLPDAVPKTANTLPSKEAITVQQKQMPFCDKDRTLMTPVQNLEQSYMPPDSSSPENKSLEVSDTRFHSFSFYELKNVTNNFDERPISVGGNKMGEGGFGVVYKGYVNNTTVAVKKLAAMVDITTEELKQQFDQEIKVMAKCQHENLVELLGFSSDGDDLCLVYVYMPNGSLLDRLSCLDGTPPLSWHMRCKIAQGAANGINFLHENHHIHRDIKSANILLDEAFTAKISDFGLARASEKFAQTVMTSRIVGTTAYMAPEALRGEITPKSDIYSFGVVLLEIITGLPAVDEHREPQLLLDIKEEIEDEEKTIEDYIDKKMNDADSTSVEAMYSVASQCLHEKKNKRPDIKKVQQLLQEMTAS
- in vitro kinase assay on anti-myc immunoprecipitates, autoradiography (myc-IRAK1c-KD): Neither IPAK1c nor IPAK1c-KD showed any phosphorylation in the presence of IRAK4
- in vitro kinase assay on anti-myc immunoprecipitates, autoradiography (myc-IRAK1c): Neither IPAK1c nor IPAK1c-KD showed any phosphorylation in the presence of IRAK4
